Data on one molecule can be found in PMC6535915 (ASN NEURO, 2019).

The assay has as its target T1, connexin 36 (rat (endogenous in supraoptic nucleus), UniProt O70610 1-321).
T1 sequence (looked up): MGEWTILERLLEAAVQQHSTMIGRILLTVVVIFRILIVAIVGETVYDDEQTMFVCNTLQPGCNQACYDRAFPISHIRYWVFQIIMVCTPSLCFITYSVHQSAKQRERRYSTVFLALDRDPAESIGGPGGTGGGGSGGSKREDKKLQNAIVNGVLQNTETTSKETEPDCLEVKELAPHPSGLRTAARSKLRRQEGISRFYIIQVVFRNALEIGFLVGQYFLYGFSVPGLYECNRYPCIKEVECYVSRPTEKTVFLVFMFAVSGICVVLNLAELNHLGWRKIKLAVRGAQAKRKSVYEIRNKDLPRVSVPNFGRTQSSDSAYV
Description: co-IP.

B1: oxytocin-neurophysin (natural protein, rat (endogenous in supraoptic nucleus), UniProt P01179 20-125, looked up)
chain: CYIQNCPLGGKRAALDLDMRKCLPCGPGGKGRCFGPSICCADELGCFVGTAEALRCQEENYLPSPCQSGQKPCGSGGRCATAGICCSPDGCRTDPACDPESAFSER
Regarding B1, the “fold co-precipitated OT-NP in lactating rats relative to virgin rats” value stood at 1.61 fold.
